Data as given in patent WO2018134389A1.

Target: DC-SIGN ECD immobilised on a streptactin-functionalised SPR surface (human) (UniProt Q9NNX6)
Sequence (Q9NNX6 59-404): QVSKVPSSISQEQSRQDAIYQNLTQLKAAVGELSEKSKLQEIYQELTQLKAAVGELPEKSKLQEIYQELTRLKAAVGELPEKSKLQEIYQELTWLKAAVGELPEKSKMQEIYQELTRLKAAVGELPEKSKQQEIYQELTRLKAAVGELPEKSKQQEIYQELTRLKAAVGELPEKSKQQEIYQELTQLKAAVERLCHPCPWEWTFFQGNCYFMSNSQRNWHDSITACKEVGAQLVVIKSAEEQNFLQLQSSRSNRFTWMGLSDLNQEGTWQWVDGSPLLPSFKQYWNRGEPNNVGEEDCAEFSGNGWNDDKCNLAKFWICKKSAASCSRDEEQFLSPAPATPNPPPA

## HCMV gB treated with a(2 to 3,6)-neuraminidase (sialic acids removed) (from UniProt P13201 25-907) (ligand)
  Kd: 0.025 nM
